This is an account of results in article PMC5957452, “Structural basis for overhang excision and terminal unwinding of DNA duplexes by TREX1” (PLoS Biology, 2018).

This series deals with the molecule itself. The series is described as follows: crystal structure; TREX1 (15-25 mg/mL) in 300 mM NaCl, 50 mM Tris-HCl pH 7.0 mixed with DNA substrates at molar ratio 1:1.5; four TREX1-DNA complex crystals, TREX1 dimer in the asymmetric unit.

B1: Three prime repair exonuclease 1 (TREX1), mouse, residues 1-242 (C-terminal transmembrane domain truncated) (enzyme, Mus musculus, UniProt Q91XB0 1-242, looked up)
chain: MGSQTLPHGHMQTLIFLDLEATGLPSSRPEVTELCLLAVHRRALENTSISQGHPPPVPRPPRVVDKLSLCIAPGKACSPGASEITGLSKAELEVQGRQRFDDNLAILLRAFLQRQPQPCCLVAHNGDRYDFPLLQTELARLSTPSPLDGTFCVDSIAALKALEQASSPSGNGSRKSYSLGSIYTRLYWQAPTDSHTAEGDVLTLLSICQWKPQALLQWVDEHARPFSTVKPMYGTPATTGTT
notes: TREX1, Mus musculus, residues 1-242, subcloned into the BamHI/XhoI site of pET28a; C-terminal transmembrane domain truncated; His-tagged or non-His-tagged (thrombin-treated) TREX1 was used for crystallization; Crystals also hold DNA substrates and Mg2+; also called mTREX1; wild-type TREX1; source: E. coli BL21-CodonPlus(DE3)-RIPL or Rosetta2(DE3)pLysS, purified (Ni-NTA, HiTrap Heparin, Superdex …)
Take B1: the binding result is “binds”.
